Patent US20210063414A1, “METHODS FOR PREVENTING AND/OR TREATING BONE LOSS CONDITIONS BY MODULATING IRISIN” (Dana-Farber Cancer Institute, Inc., priority 2018, published 2021)

Columns and labels:
Type in all cases: cell-based
integrin α5/β1 = biological target: T1, integrin α5/β1 (Homo sapiens, UniProt P05556+P08648); test: FAK phosphorylation in HEK293T cells with forced expression of integrin α5/β1
T1 construct: expressed in transfected cells; host or cells: HEK293T
Method: (§1) 100 nM irisin was incubated with 5 nM indicated his-tag integrins followed by immunoprecipitation using Ni-NTA agaroses. Precipitated integrins and co-precipitated irisin were analyzed by immunoblot analysis. […] HEK293T cells were seeded and incubated until 50% cell density. The cells were transfected with 0.1 μg plasmids of indicated integrins. After 48 hours, the cells were re-split to indicated dose of vitronectin-coated plates. Cells were incubated with culture medium for 3 hours. Cells were lysed to detect the indicated protein level using immunoblot analysis. FIG. 15C and FIG. 15D show the immunoblot data. Cells were treated and analyzed as FIG. 14B except using plasmids encoding integrin α5/β1 or integrin α11/β1 (FIG. 15C) integrin αV/β1(FIG. 15D).
(§2) HEK293T cells were set up for experiments at 1×10^5 cells per well in 6 well plate. On day 2, cells were transiently transfected with the indicated plasmids with FuGENE® 6 reagent (Roche Applied Science) according to the manufacturer's protocol. […]
(§3) Cells were harvested in RIPA buffer containing protease-inhibitor cocktail and phosphataseinhibitor cocktail. […] Protein levels were analyzed via western blot using indicated antibody. […] Protein levels were analyzed using western blot against indicated antibody.

integrin αV/β1 = biological target: T2, integrin αV/β1 (Homo sapiens, UniProt P05556+P06756); test: FAK phosphorylation in HEK293T cells with forced expression of integrin αV/β1
T2 construct: expressed in transfected cells; host or cells: HEK293T
Method: as §1, §2, §3

integrin αV/β3 = biological target: T3, integrin αV/β3 (Homo sapiens, UniProt P05106+P06756); test: FAK phosphorylation in HEK293T cells with forced expression of integrin αV/β3; settings: HEK293T, forced expression of integrin αV/β3, irisin 5 minutes
T3 construct: expressed in transfected cells; host or cells: HEK293T
Method: 100 nM irisin was incubated with 5 nM indicated his-tag integrins followed by immunoprecipitation using Ni-NTA agaroses. Precipitated integrins and co-precipitated irisin were analyzed by immunoblot analysis. […] HEK293T cells were seeded and incubated until 50% cell density. The cells were transfected with 0.1 μg plasmids of indicated integrins. After 48 hours, the cells were incubated with Freestyle293 medium for 3 hours and were treated with indicated concentration of irisin for 5 minutes. Cells were lysed to detect the indicated protein level using immunoblot analysis. […] MLO-Y4 cells were treated as described in FIG. 2D with addition of pretreatment of indicated antagonistic antibodies for 10 minutes. Cells were lysed to detect the indicated protein level using immunoblot analysis. […] Sclerostin mRNA level was analyzed by qRT-PCR. […]
100 nM irisin was incubated with 5 nM indicated his-tag integrins followed by immunoprecipitation using Ni-NTA agaroses. Precipitated integrins and co-precipitated irisin were analyzed by immunoblot analysis. […] Cells were treated and analyzed as FIG. 14B except using plasmids encoding integrin α5/β1 or integrin α11/β1 (FIG. 15C) integrin αV/β1(FIG. 15D). […]
Cells were harvested in RIPA buffer containing protease-inhibitor cocktail and phosphataseinhibitor cocktail. […] Protein levels were analyzed via western blot using indicated antibody. […]

T2 sequence (P06756 31-889 limits assumed): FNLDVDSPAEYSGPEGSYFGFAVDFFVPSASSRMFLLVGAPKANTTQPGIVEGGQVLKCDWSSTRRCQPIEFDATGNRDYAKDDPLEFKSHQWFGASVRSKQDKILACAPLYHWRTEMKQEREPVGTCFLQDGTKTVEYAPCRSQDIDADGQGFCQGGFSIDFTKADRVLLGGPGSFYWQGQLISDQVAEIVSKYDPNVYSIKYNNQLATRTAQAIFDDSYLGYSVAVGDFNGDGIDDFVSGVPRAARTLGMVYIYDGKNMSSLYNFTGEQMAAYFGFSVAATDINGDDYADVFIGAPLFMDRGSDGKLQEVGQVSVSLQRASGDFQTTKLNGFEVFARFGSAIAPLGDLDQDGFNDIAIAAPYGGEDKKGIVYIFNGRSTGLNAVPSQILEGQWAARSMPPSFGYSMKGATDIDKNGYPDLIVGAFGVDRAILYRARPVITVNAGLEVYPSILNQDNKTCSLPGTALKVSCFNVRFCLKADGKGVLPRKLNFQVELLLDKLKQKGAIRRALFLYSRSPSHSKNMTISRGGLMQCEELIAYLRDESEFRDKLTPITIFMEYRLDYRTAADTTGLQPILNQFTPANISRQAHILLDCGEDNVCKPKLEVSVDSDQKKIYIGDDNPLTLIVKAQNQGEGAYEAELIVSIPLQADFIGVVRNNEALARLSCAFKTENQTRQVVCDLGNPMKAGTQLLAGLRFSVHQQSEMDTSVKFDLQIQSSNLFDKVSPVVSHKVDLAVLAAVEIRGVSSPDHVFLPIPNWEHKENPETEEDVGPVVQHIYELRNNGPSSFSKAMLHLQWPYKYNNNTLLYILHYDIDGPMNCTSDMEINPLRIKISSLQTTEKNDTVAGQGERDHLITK
T2 sequence (P06756 891-1048 partner limits assumed): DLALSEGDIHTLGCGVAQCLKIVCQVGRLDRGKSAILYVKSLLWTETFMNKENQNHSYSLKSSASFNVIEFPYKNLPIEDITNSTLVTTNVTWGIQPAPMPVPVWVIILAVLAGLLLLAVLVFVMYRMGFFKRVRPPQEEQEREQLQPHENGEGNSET
T2 sequence (P05556 21-798): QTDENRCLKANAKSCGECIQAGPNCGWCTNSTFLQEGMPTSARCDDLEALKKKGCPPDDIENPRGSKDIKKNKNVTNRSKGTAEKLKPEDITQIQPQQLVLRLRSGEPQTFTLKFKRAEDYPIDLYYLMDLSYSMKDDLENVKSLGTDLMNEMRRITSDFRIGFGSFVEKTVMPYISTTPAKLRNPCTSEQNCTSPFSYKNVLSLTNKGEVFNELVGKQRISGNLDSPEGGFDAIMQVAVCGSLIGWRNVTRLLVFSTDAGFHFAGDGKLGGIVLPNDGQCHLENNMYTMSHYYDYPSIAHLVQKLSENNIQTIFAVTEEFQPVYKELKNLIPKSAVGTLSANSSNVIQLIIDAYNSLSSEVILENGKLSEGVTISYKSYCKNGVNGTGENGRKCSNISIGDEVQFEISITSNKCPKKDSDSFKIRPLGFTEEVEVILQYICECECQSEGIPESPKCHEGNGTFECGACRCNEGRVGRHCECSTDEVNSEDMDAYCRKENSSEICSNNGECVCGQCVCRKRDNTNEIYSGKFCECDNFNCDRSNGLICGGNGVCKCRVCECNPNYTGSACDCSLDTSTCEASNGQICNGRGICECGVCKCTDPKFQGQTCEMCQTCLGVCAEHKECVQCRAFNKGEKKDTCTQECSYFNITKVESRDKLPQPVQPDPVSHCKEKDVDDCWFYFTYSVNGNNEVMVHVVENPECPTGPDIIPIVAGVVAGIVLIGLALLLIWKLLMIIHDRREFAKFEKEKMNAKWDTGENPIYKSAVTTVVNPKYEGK
T3 sequence (P06756 31-889 limits assumed): as the sequence (P06756 31-889 limits assumed) above
T3 sequence (P06756 891-1048 partner limits assumed): as the sequence (P06756 891-1048 partner limits assumed) above
T3 sequence (P05106 27-788): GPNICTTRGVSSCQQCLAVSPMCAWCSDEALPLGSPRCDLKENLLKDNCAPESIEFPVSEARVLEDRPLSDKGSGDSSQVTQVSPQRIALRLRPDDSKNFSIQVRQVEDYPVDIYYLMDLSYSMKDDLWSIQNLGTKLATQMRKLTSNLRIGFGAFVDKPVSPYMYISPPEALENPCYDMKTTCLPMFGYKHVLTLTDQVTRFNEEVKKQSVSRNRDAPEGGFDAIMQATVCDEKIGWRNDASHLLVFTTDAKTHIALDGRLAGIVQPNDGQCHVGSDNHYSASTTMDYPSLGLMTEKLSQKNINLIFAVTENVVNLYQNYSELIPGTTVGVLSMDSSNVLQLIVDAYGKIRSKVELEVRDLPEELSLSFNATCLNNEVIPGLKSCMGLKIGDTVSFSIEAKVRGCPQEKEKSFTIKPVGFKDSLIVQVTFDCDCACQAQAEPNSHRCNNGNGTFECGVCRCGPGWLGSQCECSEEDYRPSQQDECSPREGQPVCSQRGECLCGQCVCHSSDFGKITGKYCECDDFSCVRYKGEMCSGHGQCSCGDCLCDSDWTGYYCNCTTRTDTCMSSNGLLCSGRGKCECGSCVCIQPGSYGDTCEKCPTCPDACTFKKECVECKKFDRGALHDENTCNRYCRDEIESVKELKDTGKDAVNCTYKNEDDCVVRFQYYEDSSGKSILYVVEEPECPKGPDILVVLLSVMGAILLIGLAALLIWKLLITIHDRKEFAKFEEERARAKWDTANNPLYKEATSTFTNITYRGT
T1 sequence (P08648 42-894 limits assumed): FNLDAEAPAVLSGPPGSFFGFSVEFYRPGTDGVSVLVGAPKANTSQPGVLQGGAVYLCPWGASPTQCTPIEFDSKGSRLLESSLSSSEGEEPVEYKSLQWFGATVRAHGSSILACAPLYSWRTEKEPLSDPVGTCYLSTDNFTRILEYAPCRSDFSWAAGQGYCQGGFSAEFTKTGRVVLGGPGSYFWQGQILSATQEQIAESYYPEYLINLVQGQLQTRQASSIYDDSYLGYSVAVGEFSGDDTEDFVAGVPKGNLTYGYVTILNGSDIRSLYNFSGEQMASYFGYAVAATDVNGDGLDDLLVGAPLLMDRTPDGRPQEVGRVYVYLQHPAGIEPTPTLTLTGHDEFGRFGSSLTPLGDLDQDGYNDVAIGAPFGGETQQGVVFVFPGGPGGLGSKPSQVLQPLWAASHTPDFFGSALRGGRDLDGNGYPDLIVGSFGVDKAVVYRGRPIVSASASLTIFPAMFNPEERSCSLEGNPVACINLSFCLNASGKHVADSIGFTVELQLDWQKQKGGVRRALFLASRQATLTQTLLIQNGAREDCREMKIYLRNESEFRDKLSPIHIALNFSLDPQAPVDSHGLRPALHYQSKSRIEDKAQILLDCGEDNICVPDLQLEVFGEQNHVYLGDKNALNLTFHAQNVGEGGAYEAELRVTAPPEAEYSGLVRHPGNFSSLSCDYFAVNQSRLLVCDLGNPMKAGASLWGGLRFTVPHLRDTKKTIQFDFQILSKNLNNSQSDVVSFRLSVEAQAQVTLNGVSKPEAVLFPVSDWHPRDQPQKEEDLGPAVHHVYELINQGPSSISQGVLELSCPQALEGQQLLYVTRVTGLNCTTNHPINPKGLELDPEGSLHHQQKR
T1 sequence (P08648 895-1049 partner limits assumed): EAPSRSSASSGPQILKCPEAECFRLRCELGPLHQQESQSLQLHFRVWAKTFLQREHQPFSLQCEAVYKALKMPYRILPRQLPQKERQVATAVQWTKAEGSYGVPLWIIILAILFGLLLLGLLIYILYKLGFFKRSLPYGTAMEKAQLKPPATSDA
T1 sequence (P05556 21-798): as the sequence (P05556 21-798) above

B1: irisin: secreted cleaved form of FNDC5; recombinant human/mouse irisin with C-terminal his tag produced in HEK293 cells (protein)
chain: DSPSAPVNVTVRHLKANSAVVSWDVLEDEVVIGFAISQQKKDVRMLRFIQEVNTTTRSCALWDLEEDTEYIVHVQAISIQGQSPASEPVLFKTPREAEKMASKNKDEVTMKE
modifications: left off: small tags and cut ends
notes: secreted cleaved form of FNDC5; recombinant human/mouse irisin with C-terminal his tag produced in HEK293 cells
phosphorylation of FAK upon irisin treatment (integrin α5/β1): little phosphorylation of FAK above background | phosphorylation of FAK upon irisin treatment (integrin αV/β1): increased FAK phosphorylation | phosphorylation of FAK upon irisin treatment (integrin αV/β3): not
